Results published in doi:10.1101/2024.12.23.630085, “Accurate sequence-to-affinity models for SH2 domains from multi-round peptide binding assays coupled with free-energy regression” (bioRxiv, 2025).
Non-standard residues stand in square brackets, D forms with d. No end group written: not given here. *: point of attachment. FITC = O=C1OC2(c3ccc(O)cc3Oc3cc(O)ccc32)c2ccc(NC(=S)*)cc21; pY = N[C@@H](Cc1ccc(OP(=O)(O)O)cc1)C(=O)O; Ahx = NCCCCCC(=O)O

B1: CD84 pY296 (peptide)
peptide: Ac-QAESRI[pY]DEILQG-NH2
notes: flank added to the 11-residue stretch (surmised: last residue of the library's constant GQSGQ); CD84, human, around pY296; flank added to the 11-residue stretch (surmised: first residue of the library's constant GGQSG); source: synthetic peptide (SynPeptide, China)
B2: SIGLEC5 pY544 (peptide)
peptide: Ac-QPSTTE[pY]SEIKTG-NH2
notes: flank added to the 11-residue stretch (surmised: last residue of the library's constant GQSGQ); SIGLEC5, human, around pY544; flank added to the 11-residue stretch (surmised: first residue of the library's constant GGQSG); source: synthetic peptide (SynPeptide, China)
B3: Syn-G2-2 (synthetic) (peptide)
peptide: Ac-QHNIHS[pY]INIPPG-NH2
notes: source: synthetic peptide (SynPeptide, China)
B4: Syn-G2-7 (synthetic) (peptide)
peptide: Ac-QIEVGT[pY]QNPHNG-NH2
notes: as for B3
B5: FITC-Ahx-GDG(pY)EEISPLLL (peptide)
peptide: {FITC-Ahx}-GDG[pY]EEISPLLL
notes: c-Src SH2 consensus peptide; the Y is phosphotyrosine; also called c-Src SH2 consensus; probe; source: synthetic peptide (SynPeptide, China)
B6: Syn-G2-5 (synthetic) (peptide)
peptide: Ac-QLGHQR[pY]HNITPG-NH2
notes: as for B3
B7: Syn-G2-1 (synthetic) (peptide)
peptide: Ac-QKEAHH[pY]VNWRTG-NH2
notes: as for B3
B8: Syn-G2-6 (synthetic) (peptide)
peptide: Ac-QHRLNN[pY]ENNRLG-NH2
notes: as for B3
B9: SLAP-130 pY595 (peptide)
peptide: Ac-QDDQEV[pY]DDVAEG-NH2
notes: flank added to the 11-residue stretch (surmised: last residue of the library's constant GQSGQ); SLAP-130, human, around pY595; flank added to the 11-residue stretch (surmised: first residue of the library's constant GGQSG); also called SLAP-130 Y595; source: synthetic peptide (SynPeptide, China)

Legend:
Details in all cases: both partners purified
c-Src SH2 domain = target: T1, c-Src SH2 domain (UniProt P12931-1 151-248, biotin (biotinylated SH2 domain of the selection)); test: fluorescence polarisation; competition mode; unlabelled phosphopeptide against 30 nM FITC-Ahx-GDG-pY-EEISPLLL-NH2 and 122.745 nM c-Src SH2 (123.745 to 125.745 in three rows; Table S3)
T1 construct: SH2 domain of c-Src kinase; source: purified

Lyn SH2 domain (121-228) [1] = target: T2, Lyn SH2 domain (121-228) (human, UniProt P07948 121-228, biotin (on the AviTag)); test: fluorescence polarisation; competition mode; unlabelled phosphopeptide against 30 nM FITC-Ahx-GDG-pY-EEISPLLL-NH2 and 106.5 nM Lyn SH2 (Table S3)
T2 construct: source: E. coli C43(DE3) with BirA helper plasmid, purified (HisTrap, anion exchange, Ulp1 cleavage, SEC); not shown: His6-SUMO, N-terminal, cleaved; AviTag, C-terminal, kept

Grb2 SH2 domain = target: T3, Grb2 SH2 domain (UniProt P62993 60-152, biotin (biotinylated SH2 domain of the selection)); test: fluorescence polarisation; competition mode; unlabelled phosphopeptide against 30 nM FITC-Ahx-FDDPS(pY)VNVQN and 123 nM Grb2 SH2 (Table S3)
T3 construct: SH2 domain of the adapter protein Grb2; source: purified

Blk SH2 domain (116-222) = target: T4, Blk SH2 domain (116-222) (human, UniProt P51451 116-222, biotin on the AviTag); test: fluorescence polarisation; competition mode: unlabelled phosphopeptide competes with a FITC-labelled probe phosphopeptide for the purified SH2 domain; probe KD first measured in direct mode; as described in ref. 33
T4 construct: human Blk kinase, SH2 domain, residues 116-222; source: E. coli C43(DE3) with BirA helper plasmid, purified (HisTrap, HiTrap Q, Superdex 75); not shown: His6-SUMO, N-terminal, cleaved; AviTag, C-terminal, kept

Lyn SH2 domain (121-228) [2] = target: T5, Lyn SH2 domain (121-228) (human, UniProt P07948 121-228, biotin on the AviTag); test: as above
T5 construct: source: E. coli C43(DE3) with BirA helper plasmid, purified (HisTrap, HiTrap Q, Superdex 75); not shown: His6-SUMO, N-terminal, cleaved; AviTag, C-terminal, kept

Fyn SH2 domain (142-248) = target: T6, Fyn SH2 domain (142-248) (human, UniProt P06241 142-248, biotin on the AviTag); test: as above
T6 construct: human Fyn kinase, SH2 domain, residues 142-248; source: E. coli C43(DE3) with BirA helper plasmid, purified (HisTrap, HiTrap Q, Superdex 75); not shown: His6-SUMO, N-terminal, cleaved; AviTag, C-terminal, kept

Yes SH2 domain (150-257) = target: T7, Yes SH2 domain (150-257) (human, UniProt P07947 150-257, biotin on the AviTag); test: as above
T7 construct: human Yes kinase, SH2 domain, residues 150-257; source: E. coli C43(DE3) with BirA helper plasmid, purified (HisTrap, HiTrap Q, Superdex 75); not shown: His6-SUMO, N-terminal, cleaved; AviTag, C-terminal, kept
T7 sequence (P07947 150-257): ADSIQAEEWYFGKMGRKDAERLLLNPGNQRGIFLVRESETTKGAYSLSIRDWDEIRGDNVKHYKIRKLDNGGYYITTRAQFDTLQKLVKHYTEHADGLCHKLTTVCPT

T3 sequence (P62993 60-152): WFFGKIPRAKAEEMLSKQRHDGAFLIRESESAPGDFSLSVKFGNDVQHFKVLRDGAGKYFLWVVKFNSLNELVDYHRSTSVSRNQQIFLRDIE
T2 sequence (P07948 121-228): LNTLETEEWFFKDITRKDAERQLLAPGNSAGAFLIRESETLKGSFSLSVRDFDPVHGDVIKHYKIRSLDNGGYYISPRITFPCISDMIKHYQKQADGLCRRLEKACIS
T6 sequence (P06241 142-248): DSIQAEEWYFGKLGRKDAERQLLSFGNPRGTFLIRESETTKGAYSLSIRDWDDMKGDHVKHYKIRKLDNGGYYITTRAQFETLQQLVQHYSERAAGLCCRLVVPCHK
T5 sequence (P07948 121-228): as the sequence (P07948 121-228) above
T4 sequence (P51451 116-222): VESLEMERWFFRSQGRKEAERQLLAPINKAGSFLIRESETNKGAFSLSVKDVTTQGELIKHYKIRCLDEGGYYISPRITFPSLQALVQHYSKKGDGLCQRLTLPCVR

Binder | Kd (c-Src SH2 domain) [nM] | Kd (Lyn SH2 domain (121-228) [1]) [nM] | Kd (Grb2 SH2 domain) [nM] | also measured
B1 | 28.1 | 91 | – | –
B2 | 282 | 362 | – | –
B3 | – | – | 3.99 | –
B4 | – | – | 3240 | –
B5 | – | – | – | binding result (Blk SH2 domain (116-222)): binds; binding result (Lyn SH2 domain (121-228) [2]): binds; binding result (Fyn SH2 domain (142-248)): binds; binding result (Yes SH2 domain (150-257)): binds
B6 | – | – | 487 | –
B7 | 9660 | – | 31.8 | –
B8 | – | – | 2250 | –
B9 | 191 | 240 | – | –
